Patent US12454527B2, “Conjugate monomethyl auristatin E to obtain a composition for treatment of prostate cancer” (priority 2019, dated 2025)
Where “and” joins values, the source holds several entries; their conditions need not be identical. Equal values may be shown once. Read-outs that look alike come from different tables or passages of the source. Starred links: 1 amine or outer side, 2 acyl side, 3 side chain; linkers in the order of their positions; H or OH if unused. Non-standard residues stand in square brackets, D forms with d. Residues, ends and D or L forms follow the SMILES beside them. ξ: configuration not given here. *: point of attachment. GluureaLys(ε-3-ClBenzyl) = O=C(O)CC[C@H](NC(=O)N[C@@H](CCCCN(Cc1cccc(Cl)c1)*)C(=O)O)C(=O)O; Dolaproine = CO[C@@H]([C@@H]1CCCN1)[C@@H](C)C(=O)O; Dil = CC[C@H](C)[C@H](NC)[C@@H](CC(=O)O)OC; X1 = O=C(CCCc1cn(CCCN[*:1])nn1)[*:2]; PABC = O=C(OCc1ccc(N[*:1])cc1)[*:2]; X2 = C[C@@H](N*)[C@@H](O)c1ccccc1; Cit = NC(=O)NCCC[C@H](N)C(=O)O; Suc = O=C(CCC(=O)[*:2])[*:1]; NMeV = CN[C@H](C(=O)O)C(C)C; ξV = CC(C)C(N)C(=O)O; Ahx = NCCCCCC(=O)O

Legend:
[1] = Pharmacokinetics in plasma of rats after a single injection; type: in vivo; conditions: for level at 0.5 h / level at 1 h / level at 1.5 h / level at 2 h / level at 3 h / level at 4 h / level at 6 h / level at 8 h / level at 10 h / level at 12 h: male, white outbred, rat, plasma; for level at 0.5 h: 0.50 hour
Experimental: The pharmacokinetics study for the Conjugate (I) product in plasma of rabbits and rats after a single injection.
The leporids and rodents are the standard targets for preclinical studies of potential drug products as well as determining the pharmacokinetic parameters. The rabbits and rats are recommended as test systems to study pharmacokinetic properties of pharmaceutical products by the regulatory documents (FIG. 7, FIG. 8).
This study was performed on healthy awake white outbred mature male rats aged about 3 months with body weight of 190-210 g. […] The pharmacokinetic data, determined from this number of test animals, are sufficient to obtain the primary quantitative characteristics of test product distribution and elimination and the calculation of descriptive statistics parameters.
• 1. Conjugate (1) • 2. Solubilizer Pluronic F127—in the amount, five-fold greater than the conjugate amount by weight. • 3, Diluent—Haemodes infusion solution. • Dimethyl sulfoxide—in the amount of 5% of the prepared volume. • Rabbit experiment (see Tables 5, 6), • Rat experiment (see Tables 7, 8).

[2] = Body weight of mice in lymphoid leukosis P388 model; type: in vivo
Experimental: Lymphoid Leukosis P388 (male mice BDF1)—observation was held for 30 days since the first product administration (the product administration was started 24 hours after revaccination) and it was administered 3 times intraperitoneally in a day.
• 1. Group 1—tumor growth control (TGC) • 2. Group 2—placebo (diluent) • 3. Group 3—intraperitoneal Conjugate (I) administration in a dose of 0.5 mg/kg 3 times; • 4. Group 4—intraperitoneal Conjugate (I) administration in a dose of 1.0 mg/kg 3 times:
Experimental animals of control group (TGC) were administered with 0.9% saline, the placebo group was injected with the diluent (DMSO+Haemodes) of similar volume. The antineoplastic activity was determined according to mice lifespan.

[3] = rats N=6, read-out: Concentration in blood plasma, Mean value
[4] = rats N=6, read-out: Concentration in blood plasma, Median
[5] = rats N=6, read-out: Concentration in blood plasma, Geometr. mean
[6] = rats, read-out: Concentration in blood plasma (individual animals)

Compound: CC[C@H](C)[C@@H]([C@@H](CC(=O)N1CCC[C@H]1[C@H](OC)[C@@H](C)C(=O)N[C@H](C)[C@@H](O)c1ccccc1)OC)N(C)C(=O)[C@@H](NC(=O)[C@H](C(C)C)N(C)C(=O)OCc1ccc(NC(=O)[C@H](CCCNC(N)=O)NC(=O)C(NC(=O)CCCc2cn(CCCNC(=O)[C@H](Cc3ccc(O)cc3)NC(=O)[C@H](Cc3ccccc3)NC(=O)CCC(=O)NCCCCCC(=O)N(CCCC[C@H](NC(=O)N[C@@H](CCC(=O)O)C(=O)O)C(=O)O)Cc3cccc(Cl)c3)nn2)C(C)C)cc1)C(C)C (stereo partly drawn) [Conjugate (I)] ({GluureaLys(ε-3-ClBenzyl)-Ahx-Suc}-FY[X1][ξV][Cit][PABC][NMeV]V[Dil][Dolaproine]-X2)
- level at 0.5 h [1, 3]: 18000 ng/mL
- level at 0.5 h [1, 4]: 14300 ng/mL
- level at 1 h [1, 5]: 13400 ng/mL
- level at 1 h [1, 3]: 15200 ng/mL
- level at 1 h [1, 4]: 12500 ng/mL
- level at 1.5 h ([1]; rats N=6, 1.50 hour, read-out: Concentration in blood plasma, Geometr. mean): 10700 ng/mL
- level at 1.5 h ([1]; rats N=6, 1.50 hour, read-out: Concentration in blood plasma, Mean value): 11600 ng/mL
- level at 1.5 h ([1]; rats N=6, 1.50 hour, read-out: Concentration in blood plasma, Median): 10700 ng/mL
- level at 2 h [1, 5]: 10900 ng/mL
- level at 2 h [1, 3]: 11500 ng/mL
- level at 2 h [1, 4]: 10500 ng/mL
- level at 3 h [1, 5]: 7480 ng/mL
- level at 3 h [1, 3]: 7680 ng/mL
- level at 3 h [1, 4]: 7470 ng/mL
- level at 4 h ([1]; rats N=6, 4.00 hour, read-out: Concentration in blood plasma, Geometr. mean): 5730 ng/mL
- level at 4 h ([1]; rats N=6, 4.00 hour, read-out: Concentration in blood plasma, Mean value): 5860 ng/mL
- level at 4 h ([1]; rats N=6, 4.00 hour, read-out: Concentration in blood plasma, Median): 5840 ng/mL
- level at 6 h ([1]; rats N=6, 6.00 hour, read-out: Concentration in blood plasma, Geometr. mean): 4390 ng/mL
- level at 6 h ([1]; rats N=6, 6.00 hour, read-out: Concentration in blood plasma, Mean value): 4500 ng/mL
- level at 6 h ([1]; rats N=6, 6.00 hour, read-out: Concentration in blood plasma, Median): 4240 ng/mL
- level at 8 h [1, 5]: 3260 ng/mL
- level at 8 h [1, 3]: 3350 ng/mL
- level at 8 h [1, 4]: 3190 ng/mL
- level at 10 h [1, 5]: 2300 ng/mL
- level at 10 h [1, 3]: 2370 ng/mL
- level at 10 h [1, 4]: 2090 ng/mL
- level at 12 h [1, 5]: 1760 ng/mL
- level at 12 h [1, 3]: 1820 ng/mL
- level at 12 h [1, 4]: 1620 ng/mL
- level at 8 h [1, 6]: 2620 ng/mL
- level at 10 h [1, 6]: 2000 ng/mL
- Concentration in blood plasma (individual animals) ([1]; rats, 1.50 hour): 8007 ng/mL
- Concentration in blood plasma (individual animals) ([1]; rats, 4.00 hour): 5834 ng/mL and 5880 ng/mL
- Concentration in blood plasma (individual animals) ([1]; rats, 6.00 hour): 4247 ng/mL
- AUC0-t ([1]; rats, individual animals): 60334 ng·h/mL and 45653 ng·h/mL and 95993 ng·h/mL and 110564 ng·h/mL and 83377 ng·h/mL and 57819 ng·h/mL
- AUC0-∞ ([1]; rats, individual animals): 69475 ng·h/mL and 54945 ng·h/mL and 115670 ng·h/mL and 121598 ng·h/mL and 96420 ng·h/mL and 69132 ng·h/mL
- C0 ([1]; rats, individual animals): 14307 ng/mL and 5351 ng/mL and 25202 ng/mL and 96531 ng/mL and 27501 ng/mL and 15195 ng/mL
- T1/2 ([1]; rats, individual animals): 5.10 h and 5.00 h and 4.49 h and 4.13 h and 5.14 h
- Vd ([1]; rats, individual animals): 0.12816 L/kg and 0.20101 L/kg and 0.09361 L/kg and 0.07983 L/kg and 0.09261 L/kg and 0.16076 L/kg
- Body weight of mice ([2]; 0.5 mg/kg, day 0, in g (unit assumed)): 19.9 ± 0.36
- Body weight of mice ([2]; 0.5 mg/kg, day 2, in g (unit assumed)): 19.2 ± 0.28
- Body weight of mice ([2]; 0.5 mg/kg, day 4, in g (unit assumed)): 19.2 ± 0.32
- Body weight of mice ([2]; 1.0 mg/kg, day 0, in g (unit assumed)): 19.7 ± 0.36
- Body weight of mice ([2]; 1.0 mg/kg, day 2, in g (unit assumed)): 19.7 ± 0.48
- Body weight of mice ([2]; 1.0 mg/kg, day 4, in g (unit assumed)): 19.7 ± 0.42
